Experimental data reported in US20230055694A1 (INSTIL BIO UK, published 2023).

T1: rhCEACAM5-Fc (human, UniProt P06731 35-685)
T1 construct: Bought staining reagent; construct limits and Fc not described; also called primary rhCEACAM5-Fc antibody; CEA.hFc protein; not shown: Fc tag detected with anti-IgG-Fc-PE
T1 sequence (looked up): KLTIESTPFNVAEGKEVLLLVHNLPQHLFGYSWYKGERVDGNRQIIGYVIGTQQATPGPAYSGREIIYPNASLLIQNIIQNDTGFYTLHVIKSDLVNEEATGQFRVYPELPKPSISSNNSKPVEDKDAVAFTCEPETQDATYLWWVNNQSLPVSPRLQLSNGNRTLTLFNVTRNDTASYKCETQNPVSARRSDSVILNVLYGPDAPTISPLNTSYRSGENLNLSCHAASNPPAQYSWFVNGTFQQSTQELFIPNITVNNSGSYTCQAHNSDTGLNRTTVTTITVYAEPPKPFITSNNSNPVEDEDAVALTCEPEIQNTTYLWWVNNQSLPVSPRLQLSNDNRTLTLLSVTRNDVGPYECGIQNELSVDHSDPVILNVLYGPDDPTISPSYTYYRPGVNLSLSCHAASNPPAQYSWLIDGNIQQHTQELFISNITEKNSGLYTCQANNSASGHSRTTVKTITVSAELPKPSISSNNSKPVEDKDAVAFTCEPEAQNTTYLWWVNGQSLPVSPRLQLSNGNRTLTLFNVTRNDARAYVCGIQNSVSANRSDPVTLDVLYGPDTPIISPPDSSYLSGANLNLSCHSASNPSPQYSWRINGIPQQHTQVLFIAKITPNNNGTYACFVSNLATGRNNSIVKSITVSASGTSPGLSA

B1: MOV19.CD28.CD40 CoStAR (receptor, part only; not given: tag, linker, CD28 and CD40 parts, part only)
chain, part: QVQLQQSGAELVKPGASVKISCKASGYSFTGYFMNWVKQSHGKSLEWIGRIHPYDGDTFYNQNFKDKATLTVDKSSNTAHMELLSLTSEDFAVYYCTRYDGSRAMDYWGQGTTVTVSSGGGGSGGGGSGGGGSDIELTQSPASLAVSLGQRAIISCKASQSVSFAGTSLMHWYHQKPGQQPKLLIYRASNLEAGVPTRFSGSGSKTDFTLNIHPVEEEDAATYYCQQSREYPYTFGGGTKLEIK
B2: MOV19.CD28 CoStAR (receptor, part only; not given: tag, linker and CD28 part, part only)
chain, part: B1 chain, part
B3: anti-CEA CoStAR CTP232 (OSM1 signal peptide, hMFE23 scFv, AAAGSGGSG linker, CD8 EC spacer, CD8 TM, CD28.CD40) (receptor)
chain: QVKLEQSGAEVVKPGASVKLSCKASGFNIKDSYMHWLRQGPGQRLEWIGWIDPENGDTEYAPKFQGKATFTTDTSANTAYLGLSSLRPEDTAVYYCNEGTPTGPYYFDYWGQGTLVTVSSGGGGSGGGGSGGGGSENVLTQSPSSMSASVGDRVNIACSASSSVSYMHWFQQKPGKSPKLWIYSTSNLASGVPSRFSGSGSGTDYSLTISSMQPEDAATYYCQQRSSYPLTFGGGTKLEIKAAAGSGGSGFVPVFLPAKPTTTPAPRPPTPAPTIASQPLSLRPEACRPAAGGAVHTRGLDFACDIYIWAPLAGTCGVLLLSLVITLYCNHRNRSKRSRLLHSDYMNMTPRRPGPTRKHYQPYAPPRDFAAYRSKKVAKKPTNKAPHPKQEPQEINFPDDLPGSNTAAPVQETLHGCQPVTQEDGKESRISVQERQ
notes: On transduced human T cells
B4: anti-CEA CoStAR CTP244 (OSM1 signal peptide, hMFE23 scFv, AAAGSGGSG linker, CD28 (trunc IIH) spacer, CD28 TM, CD28.CD40) (receptor)
chain: QVKLEQSGAEVVKPGASVKLSCKASGFNIKDSYMHWLRQGPGQRLEWIGWIDPENGDTEYAPKFQGKATFTTDTSANTAYLGLSSLRPEDTAVYYCNEGTPTGPYYFDYWGQGTLVTVSSGGGGSGGGGSGGGGSENVLTQSPSSMSASVGDRVNIACSASSSVSYMHWFQQKPGKSPKLWIYSTSNLASGVPSRFSGSGSGTDYSLTISSMQPEDAATYYCQQRSSYPLTFGGGTKLEIKAAAGSGGSGIIHVKGKHLCPSPLFPGPSKPFWVLVVVGGVLACYSLLVTVAFIIFWVRSKRSRLLHSDYMNMTPRRPGPTRKHYQPYAPPRDFAAYRSKKVAKKPTNKAPHPKQEPQEINFPDDLPGSNTAAPVQETLHGCQPVTQEDGKESRISVQERQ
notes: On transduced human T cells

Legend:
[1] = target: Human folate receptor alpha (FolR) on cells (human) (UniProt P15328); assay: cell-based or functional assay
[2] = target: T1, rhCEACAM5-Fc; assay: flow cytometry of transduced T cells: CoStAR detected with primary rhCEACAM5-Fc and secondary anti-IgG-Fc-PE (FIG. 26)

Human folate receptor alpha (FolR) on cells (human), sequence (P15328 25-234): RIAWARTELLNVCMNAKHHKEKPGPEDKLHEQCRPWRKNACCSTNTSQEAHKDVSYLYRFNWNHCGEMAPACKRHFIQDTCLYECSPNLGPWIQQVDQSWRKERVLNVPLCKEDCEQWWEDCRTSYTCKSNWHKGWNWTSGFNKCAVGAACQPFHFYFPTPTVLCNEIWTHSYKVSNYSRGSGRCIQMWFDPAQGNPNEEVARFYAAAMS

Binder	enhancement of Bcl-XL induction in the presence of OvCAR-OKT3 [1] [%]	mean fold expansion of transduced T cells over 21 days with OvCAR-OKT3 (CA125+/Folate receptor+/CEA-) [1] [fold]	binding result [2]	further results
B1	35	1300		CD137 expression [1]: 50%; CD137 expression of CoStAR+ TIL after coculture with FolR high expressing tumour digest [1]: 50%; CD137 expression of CoStAR+ TIL after coculture with FolR low expressing tumour digest [1]: > 20%; IL-2 production [1]: 5%; TNFα production [1]: 15%
B2	20	187		enhancement of IL-2 induction in the presence of OvCAR-OKT3 [1]: 20%
B3			binds	
B4			binds	
